# According to publication PMC3240820 (Structure (London, England : 1993), 2011):
# Read-outs that look alike come from different tables or passages of the source.
# T1: CaMK domain of CASK (CASK310), residues 1-310 (UniProt O14936 1-310)
# T1 sequence (looked up): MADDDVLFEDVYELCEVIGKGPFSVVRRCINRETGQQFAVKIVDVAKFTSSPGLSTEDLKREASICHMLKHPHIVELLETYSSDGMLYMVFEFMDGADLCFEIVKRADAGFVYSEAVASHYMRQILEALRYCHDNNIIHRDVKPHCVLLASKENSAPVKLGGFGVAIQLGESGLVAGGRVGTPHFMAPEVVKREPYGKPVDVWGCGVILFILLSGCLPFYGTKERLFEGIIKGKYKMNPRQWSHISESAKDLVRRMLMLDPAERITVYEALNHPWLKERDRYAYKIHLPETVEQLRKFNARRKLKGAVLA
# B1: Caskin1 SAMs (E470-G615) with the His-tag removed (domain or fragment)
# chain: not shown
# B2: Caskin1 CID-2SAMs (residues 375-605) (domain or fragment)
# chain: not shown
# B3: Caskin1 6His-(E470-G615) (domain or fragment)
# chain: not shown
# B4: Caskin1 CID-2SAMs G566K (domain or fragment)
# chain: not shown
# Experiments:
# [1] = target: the molecule itself
# [2] = target: T1, CaMK domain of CASK (CASK310), residues …; assay: co-precipitation on dialysis into low salt
# crystal structure = target: the molecule itself; assay: crystal structure
# Caskin1 CID-2SAMs G520E = Caskin1 CID-2SAMs G520E (human, UniProt Q8WXD9 375-605, G520E); assay: SEC
# Caskin1 CID-2SAMs G520E, sequence (Q8WXD9 375-605 G520E): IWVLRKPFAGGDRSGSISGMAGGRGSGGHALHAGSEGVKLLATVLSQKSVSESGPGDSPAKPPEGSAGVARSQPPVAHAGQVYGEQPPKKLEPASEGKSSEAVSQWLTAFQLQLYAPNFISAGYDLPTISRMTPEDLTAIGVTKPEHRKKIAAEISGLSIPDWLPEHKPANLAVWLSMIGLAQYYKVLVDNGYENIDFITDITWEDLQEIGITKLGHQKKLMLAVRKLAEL
binder,measurement,setting,value
B1,binding result,[1],binds
B2,binding result,[2],binds
B3,binding result,crystal structure,binds
B4,binding result,Caskin1 CID-2SAMs G520E,binds
